Laboratory results published in paper PMC8437459.

Target: T1, MgaSpn (Streptococcus pneumoniae D39 (JH1900)) (UniProt A0A0H2ZN44)
T1 sequence: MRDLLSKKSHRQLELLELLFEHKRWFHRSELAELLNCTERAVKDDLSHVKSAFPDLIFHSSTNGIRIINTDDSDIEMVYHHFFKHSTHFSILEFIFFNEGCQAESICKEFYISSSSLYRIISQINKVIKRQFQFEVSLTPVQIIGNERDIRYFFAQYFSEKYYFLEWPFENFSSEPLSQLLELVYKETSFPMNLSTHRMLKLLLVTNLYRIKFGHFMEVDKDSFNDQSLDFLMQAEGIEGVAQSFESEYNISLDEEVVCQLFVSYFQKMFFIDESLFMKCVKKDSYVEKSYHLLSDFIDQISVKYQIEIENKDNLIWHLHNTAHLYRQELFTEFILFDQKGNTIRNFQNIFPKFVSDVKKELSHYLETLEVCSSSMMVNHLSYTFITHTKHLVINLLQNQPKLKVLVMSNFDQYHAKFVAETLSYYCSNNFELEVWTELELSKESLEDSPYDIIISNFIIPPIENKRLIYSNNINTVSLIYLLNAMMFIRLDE
Assay: EMSA

Q: “TACACATCTGCTTCTAAAATATTGTTAGAAAACGATTTGACTGTCCTGATCAATTTGTCATGTTCTTATTTCATTTTACTATATTTTTGGTTCGCGGGAAGTCTACTAAGATACTTAAAGATGCAGATAGTGAAAAAAGGTGTAGACATTACCGTAAAAAAGTGATATAATCGTAAGATGTTCAATGTATAGGTGTTAATCATGAGTAGACGTTTTAA (double strand) [Pcps probe (EMSA)]” was tested. Which binding did it give?
A: binds
